Biological target: latent myostatin (human, UniProt O14793 24-266; O14793 267-375)
Experiment: cell-based or functional assay

B1: Apitegromab (antibody, human IgG4 S228P, lambda, V domains shown)
VH: QVQLVESGGGVVQPGRSLRLSCAASGFTFSSYGMHWVRQAPGKGLEWVAVISYDGSNKYYADSVKGRFTISRDNSKNTLYLQMNSLRAEDTAVYYCARDLLVRFLEWSHYYGMDVWGQGTTVTVSS
VL: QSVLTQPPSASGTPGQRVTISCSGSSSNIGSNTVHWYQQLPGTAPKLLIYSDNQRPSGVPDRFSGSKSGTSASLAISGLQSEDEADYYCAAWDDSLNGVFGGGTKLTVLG
- target engagement, as measured by latent myostatin (serum level after treatment vs baseline; 2 mg/kg and 20 mg/kg IV every 4 weeks): 100 fold

From US20250326827A1 (SCHOLAR ROCK, published 2025)
